US20150105316A1 (TREVENA, published 2015)
Where no end group is shown, it is not given here. [ ]: non-standard residue; d: D form. Ac6c = NC1(C(=O)O)CCCCC1; Sar = CNCC(=O)O

biological target: T1, rat angiotensin 2 type 1 receptor (rat, UniProt P25095 1-359); assay: cell-based or functional assay
T1 sequence (looked up): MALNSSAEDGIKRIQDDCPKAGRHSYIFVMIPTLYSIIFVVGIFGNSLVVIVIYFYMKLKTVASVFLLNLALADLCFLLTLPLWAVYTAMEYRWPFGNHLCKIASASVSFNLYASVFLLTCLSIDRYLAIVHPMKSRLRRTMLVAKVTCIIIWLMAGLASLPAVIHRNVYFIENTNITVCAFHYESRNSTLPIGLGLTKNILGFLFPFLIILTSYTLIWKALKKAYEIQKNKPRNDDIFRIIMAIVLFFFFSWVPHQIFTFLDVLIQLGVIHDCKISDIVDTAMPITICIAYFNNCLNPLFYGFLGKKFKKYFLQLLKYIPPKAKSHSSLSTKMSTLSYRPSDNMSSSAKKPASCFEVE

| Binder | beta-arrestin2 assay EC50 [nM] | beta-arrestin2 assay Span | beta-arrestin2 assay pEC50 |
| --- | --- | --- | --- |
| [Sar]RVYPHPT [SEQ ID NO: 7 (Sar-Arg-Val-Tyr-Pro-His-Pro-Thr)] | > 3.2 | < 105 | < 8.5 |
| [Sar]RVYPHPS [SEQ ID NO: 8 (Sar-Arg-Val-Tyr-Pro-His-Pro-Ser)] | > 3.2 | < 105 | < 8.5 |
| [Sar]RVYPHPM [SEQ ID NO: 9 (Sar-Arg-Val-Tyr-Pro-His-Pro-Met)] | > 3.2 | < 105 | < 8.5 |
| [Sar]RVYPHPF [SEQ ID NO: 10 (Sar-Arg-Val-Tyr-Pro-His-Pro-Phe)] | 3.2 | > 105 | 8.5 |
| [Sar]RVY[Ac6c]HPI [SEQ ID NO: 11 (Sar-Arg-Val-Tyr-cyHex-His-Pro-Ile)] | > 3.2 | < 105 | < 8.5 |
| [Sar]RVY[Ac6c]HPL [SEQ ID NO: 12 (Sar-Arg-Val-Tyr-cyHex-His-Pro-Leu)] | > 3.2 | < 105 | < 8.5 |
| [Sar]RVY[Ac6c]HPT [SEQ ID NO: 14 (Sar-Arg-Val-Tyr-cyHex-His-Pro-Thr)] | > 3.2 | < 105 | < 8.5 |
| [Sar]RVY[Ac6c]HPS [SEQ ID NO: 15 (Sar-Arg-Val-Tyr-cyHex-His-Pro-Ser)] | > 3.2 | < 105 | < 8.5 |
| [Sar]RVY[Ac6c]HPM [SEQ ID NO: 16 (Sar-Arg-Val-Tyr-cyHex-His-Pro-Met)] | > 3.2 | < 105 | < 8.5 |
| [Sar]RVY[Ac6c]HPF [SEQ ID NO: 17 (Sar-Arg-Val-Tyr-cyHex-His-Pro-Phe)] | 3.2 | < 105 | 8.5 |

biological target: T2, human angiotensin 2 type 1 receptor (human, UniProt P30556 1-359); assay: cell-based or functional assay
T2 sequence (looked up): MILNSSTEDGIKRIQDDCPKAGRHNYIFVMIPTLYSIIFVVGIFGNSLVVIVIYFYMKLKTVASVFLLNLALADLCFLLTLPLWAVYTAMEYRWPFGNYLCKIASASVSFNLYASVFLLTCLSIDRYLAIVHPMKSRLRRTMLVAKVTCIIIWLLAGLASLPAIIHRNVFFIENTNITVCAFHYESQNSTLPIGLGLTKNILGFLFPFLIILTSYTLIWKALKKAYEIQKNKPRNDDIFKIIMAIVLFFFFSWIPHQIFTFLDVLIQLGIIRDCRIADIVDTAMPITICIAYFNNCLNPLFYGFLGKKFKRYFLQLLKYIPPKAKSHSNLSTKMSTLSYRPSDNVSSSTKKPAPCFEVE

| Binder | beta-arrestin2 assay EC50 [nM] | beta-arrestin2 assay Span | beta-arrestin2 assay pEC50 |
| --- | --- | --- | --- |
| [Sar]RVYPHPT [SEQ ID NO: 7 (Sar-Arg-Val-Tyr-Pro-His-Pro-Thr)] | > 3.2 | < 101 | < 8.5 |
| [Sar]RVYPHPS [SEQ ID NO: 8 (Sar-Arg-Val-Tyr-Pro-His-Pro-Ser)] | > 3.2 | < 101 | < 8.5 |
| [Sar]RVYPHPM [SEQ ID NO: 9 (Sar-Arg-Val-Tyr-Pro-His-Pro-Met)] | > 3.2 | < 101 | < 8.5 |
| [Sar]RVYPHPF [SEQ ID NO: 10 (Sar-Arg-Val-Tyr-Pro-His-Pro-Phe)] | > 3.2 | < 101 | < 8.5 |
| [Sar]RVY[Ac6c]HPI [SEQ ID NO: 11 (Sar-Arg-Val-Tyr-cyHex-His-Pro-Ile)] | > 3.2 | < 101 | < 8.5 |
| [Sar]RVY[Ac6c]HPL [SEQ ID NO: 12 (Sar-Arg-Val-Tyr-cyHex-His-Pro-Leu)] | > 3.2 | < 101 | < 8.5 |
| [Sar]RVY[Ac6c]HPT [SEQ ID NO: 14 (Sar-Arg-Val-Tyr-cyHex-His-Pro-Thr)] | > 3.2 | < 101 | < 8.5 |
| [Sar]RVY[Ac6c]HPS [SEQ ID NO: 15 (Sar-Arg-Val-Tyr-cyHex-His-Pro-Ser)] | > 3.2 | < 101 | < 8.5 |
| [Sar]RVY[Ac6c]HPM [SEQ ID NO: 16 (Sar-Arg-Val-Tyr-cyHex-His-Pro-Met)] | > 3.2 | < 101 | < 8.5 |
| [Sar]RVY[Ac6c]HPF [SEQ ID NO: 17 (Sar-Arg-Val-Tyr-cyHex-His-Pro-Phe)] | > 3.2 | > 101 | < 8.5 |

biological target: T1, rat angiotensin 2 type 1 receptor; assay: cell-based or functional assay; remark: another data set of the same source

| Binder | IP1 G-protein assay EC50 [nM] | IP1 G-protein assay pEC50 | IP1 G-protein assay Span |
| --- | --- | --- | --- |
| [Sar]RVYPHPT [SEQ ID NO: 7 (Sar-Arg-Val-Tyr-Pro-His-Pro-Thr)] | > 0.6 | > 9.2 | – |
| [Sar]RVYPHPS [SEQ ID NO: 8 (Sar-Arg-Val-Tyr-Pro-His-Pro-Ser)] | > 0.6 | > 9.2 | – |
| [Sar]RVYPHPM [SEQ ID NO: 9 (Sar-Arg-Val-Tyr-Pro-His-Pro-Met)] | > 0.6 | < 9.2 | < 104 |
| [Sar]RVYPHPF [SEQ ID NO: 10 (Sar-Arg-Val-Tyr-Pro-His-Pro-Phe)] | > 0.6 | < 9.2 | < 104 |
| [Sar]RVY[Ac6c]HPI [SEQ ID NO: 11 (Sar-Arg-Val-Tyr-cyHex-His-Pro-Ile)] | > 0.6 | > 9.2 | – |
| [Sar]RVY[Ac6c]HPL [SEQ ID NO: 12 (Sar-Arg-Val-Tyr-cyHex-His-Pro-Leu)] | > 0.6 | < 9.2 | < 104 |
| [Sar]RVY[Ac6c]HPT [SEQ ID NO: 14 (Sar-Arg-Val-Tyr-cyHex-His-Pro-Thr)] | > 0.6 | > 9.2 | – |
| [Sar]RVY[Ac6c]HPS [SEQ ID NO: 15 (Sar-Arg-Val-Tyr-cyHex-His-Pro-Ser)] | > 0.6 | < 9.2 | < 104 |
| [Sar]RVY[Ac6c]HPM [SEQ ID NO: 16 (Sar-Arg-Val-Tyr-cyHex-His-Pro-Met)] | > 0.6 | < 9.2 | < 104 |
| [Sar]RVY[Ac6c]HPF [SEQ ID NO: 17 (Sar-Arg-Val-Tyr-cyHex-His-Pro-Phe)] | > 0.6 | < 9.2 | > 104 |

biological target: T2, human angiotensin 2 type 1 receptor; assay: cell-based or functional assay; remark: another data set of the same source

| Binder | IP1 G-protein assay EC50 [nM] | IP1 G-protein assay pEC50 | IP1 G-protein assay Span |
| --- | --- | --- | --- |
| [Sar]RVYPHPT [SEQ ID NO: 7 (Sar-Arg-Val-Tyr-Pro-His-Pro-Thr)] | > 10000 | > 9.2 | – |
| [Sar]RVYPHPS [SEQ ID NO: 8 (Sar-Arg-Val-Tyr-Pro-His-Pro-Ser)] | 6310 | < 9.2 | < 103 |
| [Sar]RVYPHPM [SEQ ID NO: 9 (Sar-Arg-Val-Tyr-Pro-His-Pro-Met)] | 5 | < 9.2 | < 103 |
| [Sar]RVYPHPF [SEQ ID NO: 10 (Sar-Arg-Val-Tyr-Pro-His-Pro-Phe)] | 1.3 | < 9.2 | < 103 |
| [Sar]RVY[Ac6c]HPI [SEQ ID NO: 11 (Sar-Arg-Val-Tyr-cyHex-His-Pro-Ile)] | > 1.3 | < 9.2 | < 103 |
| [Sar]RVY[Ac6c]HPL [SEQ ID NO: 12 (Sar-Arg-Val-Tyr-cyHex-His-Pro-Leu)] | > 1.3 | < 9.2 | < 103 |
| [Sar]RVY[Ac6c]HPT [SEQ ID NO: 14 (Sar-Arg-Val-Tyr-cyHex-His-Pro-Thr)] | > 1.3 | > 9.2 | – |
| [Sar]RVY[Ac6c]HPS [SEQ ID NO: 15 (Sar-Arg-Val-Tyr-cyHex-His-Pro-Ser)] | > 1.3 | > 9.2 | – |
| [Sar]RVY[Ac6c]HPM [SEQ ID NO: 16 (Sar-Arg-Val-Tyr-cyHex-His-Pro-Met)] | > 1.3 | < 9.2 | < 103 |
| [Sar]RVY[Ac6c]HPF [SEQ ID NO: 17 (Sar-Arg-Val-Tyr-cyHex-His-Pro-Phe)] | < 1.3 | < 9.2 | < 103 |
